Stoichiometry N data for one substance are collected here from PMC8750329.

The target of test [1] is P. clarkii crustacyanin A2 (PcCRA2) (Procambarus clarkii). The test can be described thus: SEC + other: SDS-PAGE; fraction F2, 1 mg/mL, TSK-gel G3000SWxl, 20 mM sodium phosphate pH 7.0, 0.7 mL/min, calibrated with a protein standard mix; native mass about 43 kDa against a single 21 kDa band on SDS-PAGE.
The target is the same in test [2]. The test can be described thus: SEC + other: SDS-PAGE; fraction F1, 1 mg/mL, TSK-gel G3000SWxl, 20 mM sodium phosphate pH 7.0, 0.7 mL/min, calibrated with a protein standard mix; native mass about 170 kDa against a single 21 kDa band on SDS-PAGE.

With “P. clarkii crustacyanin A2 (PcCRA2) (natural protein)”, the results for the stoichiometry N in test [1] and in test [2] were 2 and 8, respectively.

Broadly, the stoichiometry N is the number of molecules, sites or subunits per partner or assembly.
